# Measurements from patent US20230348852A1, “METHODS AND COMPOSITIONS FOR OCULAR CELL THERAPY” (NOVARTIS AG, priority 2020, published 2023).
# B1: 8-HEYJA000004: gRNA targeting human B2M; targeting domain SEQ ID NO: 115; sgRNA SEQ ID NO: 166 (nucleic acid)
# guide: ACUCACGCUGGAUAGCCUCCGUUUUAGAGCUAGAAAUAGCAAGUUAAAAUAAGGCUAGUCCGUUAUCAACUUGAAAAAGUGGCACCGAGUCGGUGCUUUU
# modifications: listed as RNA, chemistry not given here
# B2: 6-HEYJA000001: gRNA targeting human B2M; targeting domain SEQ ID NO: 113; sgRNA SEQ ID NO: 164 (nucleic acid)
# guide: GGCCGAGAUGUCUCGCUCCGGUUUUAGAGCUAGAAAUAGCAAGUUAAAAUAAGGCUAGUCCGUUAUCAACUUGAAAAAGUGGCACCGAGUCGGUGCUUUU
# modifications: listed as RNA, chemistry not given here
# B3: 4-CR004366: gRNA targeting human B2M; targeting domain SEQ ID NO: 111; sgRNA SEQ ID NO: 162; from Dharmacon (nucleic acid)
# guide: CAGUAAGUCAACUUCAAUGUGUUUUAGAGCUAGAAAUAGCAAGUUAAAAUAAGGCUAGUCCGUUAUCAACUUGAAAAAGUGGCACCGAGUCGGUGCUUUU
# modifications: listed as RNA, chemistry not given here
# notes: gRNA targeting human B2M; from Dharmacon
# B4: 9-HEYJA000005: gRNA targeting human B2M; targeting domain SEQ ID NO: 116; sgRNA SEQ ID NO: 167 (nucleic acid)
# guide: UCACGUCAUCCAGCAGAGAAGUUUUAGAGCUAGAAAUAGCAAGUUAAAAUAAGGCUAGUCCGUUAUCAACUUGAAAAAGUGGCACCGAGUCGGUGCUUUU
# modifications: listed as RNA, chemistry not given here
# Tests used:
# B2M [1] = assay: sgRNA screening for B2M knockout in LSCs (nucleofection, FACS); format: cell-based, human; conditions: Cas9 protein SEQ ID NO: 106, LSCs at passage 3, FACS after around 3 days
# Protocol: Cells were cultured under these conditions for 24-48 hours at 37° C. in 5% CO2.
# LSCs were nuclofected with selected gRNAs (Table 6) followed by FACS analysis / MACS separation.
# After scraping the cells, the reaction was stopped by using cell culture medium containing 10% Serum and transferred to a falcon tube. After counting cells using Vi-cell 300′000 cells were prepared per reaction by transferring 300′000 cells in single tubes and centrifuged at 1000 rpm for 5 min. The supernatant was aspirated using manually pipetting to avoid cell loss and the cells were resuspended in the Stem cell nucleofector solution II (Lonza, Cat #VPH-5022). Resuspend cells in nucleofector solution immediately before adding the Cas9 RNP:sgRNA mixture. To obtain the nucleofection mixture, 5 µg high concentrated (≥5 µg/µl) Cas9 protein of SEQ ID NO: 106 (volume = 0.78 µl) was mixed with 19.5 µg sgRNA of Table 6 (volume = 12.2 µl) and incubated for 20 min at room temperature. […] The Cas9 protein-guideRNA complex was added to the cell suspension and transferred to the electroporation cuvette immediately. Cells were transfected using the nucelofector device (Lonza, Amaxa Nucleofector II) and program A023. After nucleofection cells were transferred from cuvette to one well of a 24 well synthemax coated plate containing pre-warmed LSC medium including 3 µM LATS compound and 10 µM Rock inhibitor Y-27632 (Nature 1997, vol. 389, pp. 990-994). Incubate LSCs in a 5% CO2 incubator for around 3 days until cells are 90% confluent.
# LSCs were treated with TryLE®Express Enzym (ThermoFisher, Cat #12605010) for 15 minutes in 5% CO2 at 37° C. After scraping the cells, the reaction was stopped by using cell culture medium containing 10% Serum and transferred to a falcon tube for a centrifugation step (1000 rpm, 5 minutes). After aspirating the medium cells were resuspended in 200 µl FACS buffer (PBS/10%FBS).
# (§1) To analyze the expression of B2M and HLA-ABC, 5 µl APC mouse anti-human β2-microglobulin antibody (Biolegend, Cat#316312) and 20 µl PE mouse anti-human HLA-ABC antibody (BD Bioscience, Cat # 560168) were added to the cell suspension and incubated for 30 minutes on ice.
# Cells were washed 3 times after antibody labelling with FACS buffer and resuspended in 200 µl in FACS buffer (depending on the cell number).
# FACS data were analyzed using BD FACSDiva software and FlowJo software.
# B2M [2] = assay: Targeted PCR and NGS (amplicon sequencing) of on-target and off-target sites in genome-edited LSCs; format: cell-based, human; conditions: for validated indels for off-target activity in LSCs: amplicon sequencing of potential off-target loci; for Number of sites positive for off-target activity in LSCs: of the potential off-target loci sequenced; for B2M purified rhAmpSeq indel: purified (B2M negative) LSC populations
# Protocol: Potential CRISPR/Cas9-mediated cutting sites identified above were evaluated using targeted PCR and NGS in genome-edited expanded LSCs.
# Selected sgRNAs (SEQ ID NO: 120, 162, 166, 167, 171, and 175) were further analyzed by amplicon sequencing in edited and non-edited cells. Primers flanking the potential off-target sites for each guide were used to detect indels by NGS analysis in edited LSCs and non-edited peripheral blood mononuclear cells. Sites that had either (1) a difference in mean indel percentage between edited and unedited cells greater than 0.5%; or (2) a p value less than 0.05 between edited and unedited indel were further analyzed. NGS sequence reads for such sites were assessed for characteristic indel patterns near the putative Cas9 cut site. Based on the results, we could assess the specificity of gRNAs and their suitability for therapeutic applications.
# [3] = system: genomic DNA purified from male human peripheral blood mononuclear cells; assay: Biochemical assay for potential off-target genomic sites cleaved by Cas9 and B2M guides; conditions: number of potential off-target sites, guide concentration 64 nM
# Protocol: A biochemical method (See, e.g., Cameron et al., Nature Methods. 6, 600-606; 2017) was used to determine potential off-target genomic sites cleaved by Cas9 and selected B2M guides. Guides showing B2M indel activity were tested for potential off-target genomic cleavage sites with this assay. […] The number of potential off-target sites detected using a guide concentration of 64 nM in the biochemical assay are shown in Table 10. As a result of this analysis, several gRNAs were selected for analysis of potential off-target activity in limbal stem cells.
# human B2M = assay: CRISPR/Cas9-mediated deletion of B2M in HEK293 (lipofection, FACS); format: cell-based; conditions: lipofection of tracrRNA, gRNA and Cas9 mRNA; FACS after 72 h
# Protocol: One day before transfection, 500′000 HEK293cells (ATCC, Manassas, VA) were plated in a 35 mm dish and grown in DMEM/10%FBS. The following day, cells were transfected with a mixture of tracrRNA-gRNA-Cas9 mRNA. A stock of 10 micromolar was prepared resuspending 20 nanomoles of gRNA and 20 nanomoles tracrRNA in 2000 microlitre 10 millimolar Tris buffer pH7.4 each.
# The mixture was added drop wise to the culture dish in 2.5 ml DMEM/10%FBS medium. The transfection reagent alone represented the transfection negative control.
# After 6 h incubation in 5% CO2 at 37° C. medium was replaced with fresh DMEM/10%FBS medium. After 72 h in a 5% CO2 incubator cells were prepared for FACS analysis. FACS analysis: HEK293 cells were treated with Accutase (ThermoFisher, Cat # A1110501) for 20 minutes in 5% CO2 at 37° C. The reaction was stopped by using cell culture medium containing 10% Serum and transferred to a falcon tube for a centrifugation step (1000 rpm, 5 minutes). After aspirating the medium cells were resuspended in 200 microlitre FACS buffer (PBS/10%FBS).
# as §1, with “microlitre” for “µl”, “Cat #316312)” for “Cat#316312)”, “ice. Cells were washed 3 times after antibody labelling with FACS buffer and resuspended in 500 microlitre in FACS buffer.” for “ice.”
# Each sample was transferred to one well of a round bottom 96 well plate and analyzed on a BD LSRFortessa X-20 device. FACS data were analyzed using BD FACSDiva software.
Molecule,B2M knockout efficiency in LSCs after nucleofection (B2M [1]) [%],validated indels for off-target activity in LSCs (B2M [2]),Number of sites positive for off-target activity in LSCs (B2M [2]),Number of sites positive for off-target activity in LSCs (B2M [2]; listed as SEQ ID NO: 166),B2M purified rhAmpSeq indel (B2M [2]) [%],B2M purified rhAmpSeq indel (B2M [2]; listed as SEQ ID NO: 166),off-target Site_ Count [3],B2M knockout efficiency in HEK293 (human B2M) [%],Number of sites positive for off-target activity in LSCs (B2M [2]; listed as SEQ ID NO: 162),B2M purified rhAmpSeq indel (B2M [2]; listed as SEQ ID NO: 162),Number of sites positive for off-target activity in LSCs (B2M [2]; listed as SEQ ID NO: 167),B2M purified rhAmpSeq indel (B2M [2]; listed as SEQ ID NO: 167)
B1,22,zero,0 of 60,no predicted sites tested positive for off-target activity,99.95±0.07,~ 99%,62,65,,,,
B2,33,,,,,,8,47,,,,
B3,22,zero,0 of 88,,99.85±0.21,,92,48,no predicted sites tested positive for off-target activity,~ 99%,,
B4,12,zero,0 of 35,,99.80±0.26,,35,39,,,no predicted sites tested positive for off-target activity,~ 99%
